Test results as given in patent US20230056856, “COMPOSITIONS AND METHODS FOR TUNABLE REGULATION OF TRANSCRIPTION” (OBSIDIAN THERAPEUTICS, INC., published 2023).

What was measured:
[1] = target: ZFHD1-p65-CA2(L156H) (ZFHD-019) (Artificial); test: cell_activity; ARPE-19, GFP MFI 10 uM ACZ vs DMSO, 48 h; in U2OS ACZ EC50 of payload 1.1 uM (Example 9)
Procedure: Cells were cultured in DMEM-F12 media supplemented with 10% FBS.
Ligand treatment: Each cell line was plated at a density of 15,000 cells/well in 6-8 wells of a 24-well plate. Cells were allowed to adhere overnight. […] After 48 hours incubation, cells were removed from the plate with 0.25% trypsin and collected. […] For flow cytometry, samples were washed once with cell staining buffer (Biolegend, San Diego, Calif.), resuspended in cell staining buffer with 1% QSol™ buffer (Intellicyt Corporation, Albuquerque, N. Mex.), and analyzed by flow cytometry.

[2] = target: ZFHD1-p65 (ZFHD-004, constitutive) (Artificial (Homo sapiens/Mus …)); test: cell_activity; U2OS, constitutive TF; TMP/DMSO ratio only, not regulated by ligand
[3] = target: ZFHD1-p65-ecDHFR(R12Y,Y100I) (ZFHD-005) (Artificial); test: cell_activity; U2OS, GFP MFI 10 uM TMP vs DMSO, 72 h
Procedure: (§1) Ligand treatment: Each cell line was plated in 12-well plates at a density of 80,000 cells/well and allowed to adhere overnight. Media was removed and replacement media either with 10 μM Trimethoprim (TMP) or 0.1% DMSO was added. Cells were incubated for 24 hour, 48 hour, and 72 hour timepoints. At each timepoint, cells were removed from the plates with 0.25% trypsin for collection. A 0 hour timepoint was also collected before addition of TMP or DMSO.

[4] = target: ZFHD1-ecDHFR(R12Y,Y100I)-p65 (ZFHD-008) (Artificial); test: as above
Procedure: as §1

[5] = target: ZFHD1-p65-linker-ecDHFR(R12Y,Y100I) (ZFHD-009) (Artificial); test: as above
Procedure: as §1

[6] = target: ZFHD1-p65-CA2(L156H) (ZFHD-048) (Artificial); test: cell_activity; Jurkat, GFP MFI 10 uM ACZ vs DMSO, 48 h

B1: 8xZFHD1 binding sites of payload ZFHD-007 (dsDNA)
DNA 1: TAATGATGGGCGCACGAGTAATGATGGGCGGACGACTAATGATGGGCGCACGAGTAATGATGGGCGTCTAGCTAATGATGGGCGCTAGAGTAATGATGGGCGGTAGACTAATGATGGGCGCTCCAGTAATGATGGGCG
DNA 2: CGCCCATCATTACTGGAGCGCCCATCATTAGTCTACCGCCCATCATTACTCTAGCGCCCATCATTAGCTAGACGCCCATCATTACTCGTGCGCCCATCATTAGTCGTCCGCCCATCATTACTCGTGCGCCCATCATTA
B1 gave an activity [1] of ~1.9 fold, an activity [2] of 0.894 fold and an activity [3] of 11.4 fold. The activity [4] was 3.57 fold and the activity [5] was 5.71 fold.

B2: 8xZFHD1 BS payload ZFHD-022 (dsDNA)
DNA 1: TAATGATGGGCGCACGAGTAATGATGGGCGGACGACTAATGATGGGCGCACGAGTAATGATGGGCGTCTAGCTAATGATGGGCGCTAGAGTAATGATGGGCGGTAGACTAATGATGGGCGCTCCAGTAATGATGGGCG
DNA 2: CGCCCATCATTACTGGAGCGCCCATCATTAGTCTACCGCCCATCATTACTCTAGCGCCCATCATTAGCTAGACGCCCATCATTACTCGTGCGCCCATCATTAGTCGTCCGCCCATCATTACTCGTGCGCCCATCATTA
B2 gave an activity [6] of ~2.1 fold.
